According to US20250270343A1 (Alector, published 2025):

Assays:
[1] = target: T1, full-length untagged human GPNMB expressed on cells (human, UniProt Q14956 23-572); assay: cell-based or functional assay
T1 sequence: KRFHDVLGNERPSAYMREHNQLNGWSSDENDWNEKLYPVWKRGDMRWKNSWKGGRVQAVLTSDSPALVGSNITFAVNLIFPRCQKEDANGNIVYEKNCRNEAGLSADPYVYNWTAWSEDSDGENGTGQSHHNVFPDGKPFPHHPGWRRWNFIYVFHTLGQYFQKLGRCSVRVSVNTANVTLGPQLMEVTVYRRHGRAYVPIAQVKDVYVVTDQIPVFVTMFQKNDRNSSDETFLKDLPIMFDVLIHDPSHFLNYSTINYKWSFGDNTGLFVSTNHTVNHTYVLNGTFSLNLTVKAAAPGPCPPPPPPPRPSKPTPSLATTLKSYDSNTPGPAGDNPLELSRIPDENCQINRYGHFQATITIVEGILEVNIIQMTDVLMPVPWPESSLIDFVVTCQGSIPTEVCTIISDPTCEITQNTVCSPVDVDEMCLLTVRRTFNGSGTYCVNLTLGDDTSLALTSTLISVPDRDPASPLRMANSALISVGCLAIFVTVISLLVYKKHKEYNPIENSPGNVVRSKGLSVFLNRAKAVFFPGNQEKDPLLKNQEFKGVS

[2] = target: T1, full-length untagged human GPNMB …; assay: cell-based or functional assay; remark: listed apart in the source
[3] = target: T1, full-length untagged human GPNMB …; assay: cell-based or functional assay; remark: listed apart in the source
[4] = target: T2, soluble human GPNMB (recombinant extracellular domain) (human, UniProt Q14956 23-498); assay: SPR Biacore, IgG captured
T2 construct: also called huGPNMB; recombinant human GPNMB extracellular domain; not shown: C-terminal polyhistidine or Avi-His tag
T2 sequence: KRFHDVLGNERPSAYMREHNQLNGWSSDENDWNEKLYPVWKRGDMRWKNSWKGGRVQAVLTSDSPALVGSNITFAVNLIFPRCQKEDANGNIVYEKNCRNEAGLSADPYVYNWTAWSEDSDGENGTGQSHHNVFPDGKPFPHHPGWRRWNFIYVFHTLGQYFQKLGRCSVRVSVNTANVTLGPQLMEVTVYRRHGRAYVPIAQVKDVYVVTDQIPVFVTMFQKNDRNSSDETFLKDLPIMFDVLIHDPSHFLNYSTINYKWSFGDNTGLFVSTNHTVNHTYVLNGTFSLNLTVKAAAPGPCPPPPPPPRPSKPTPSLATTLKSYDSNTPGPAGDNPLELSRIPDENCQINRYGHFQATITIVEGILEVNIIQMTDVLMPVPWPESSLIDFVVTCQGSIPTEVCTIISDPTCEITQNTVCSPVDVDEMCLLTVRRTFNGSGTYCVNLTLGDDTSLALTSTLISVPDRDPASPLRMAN
Description: (§1) Binding kinetics of the humanized and affinity matured anti-GPNMB antibodies described above were evaluated using the Biacore T200 (Cytiva). Briefly, IgGs were diluted to 10 μg/mL and captured using a Protein A/G (ThermioFisher, #21186) surface on a CM5 chip that was prepared by amine coupling according to the instrument manufacturer's recommendations. The captured antibodies were tested for their ability to bind human, cynomolgus monkey, and mouse GPNMB recombinant proteins as follows.
(§2) Human, cynomolgus, and mouse GPNMB analytes were diluted in running buffer (HBS-EP+, Teknova, #8022, with 0.5 mg/ml BSA, MP Biomedicals LLC, #820451), to a concentration of 300 nM, then diluted 3-fold serially to 100 nM, 33 nM, and 11 nM. Each sample was injected for 2 minutes to allow association, followed by dissociation in buffer alone for 10 minutes. Each sample injection was followed by the regeneration of the chip with three 30-second injections of 10 mM glycine, pH 1.7. Fresh antibody was captured at the beginning of each cycle.
(§3) Data were analyzed using Biacore evaluation software to generate kinetic constants. The equilibrium dissociation constants (KD) were calculated from the fitted association and dissociation rate constants (k-on and k-off) for each of the anti-GPNMB antibodies.

[5] = target: T3, soluble cynomolgus GPNMB (recombinant extracellular domain) (cynomolgus, UniProt Q14956 23-499 (human entry), limits assumed); assay: SPR Biacore, IgG captured
T3 chain: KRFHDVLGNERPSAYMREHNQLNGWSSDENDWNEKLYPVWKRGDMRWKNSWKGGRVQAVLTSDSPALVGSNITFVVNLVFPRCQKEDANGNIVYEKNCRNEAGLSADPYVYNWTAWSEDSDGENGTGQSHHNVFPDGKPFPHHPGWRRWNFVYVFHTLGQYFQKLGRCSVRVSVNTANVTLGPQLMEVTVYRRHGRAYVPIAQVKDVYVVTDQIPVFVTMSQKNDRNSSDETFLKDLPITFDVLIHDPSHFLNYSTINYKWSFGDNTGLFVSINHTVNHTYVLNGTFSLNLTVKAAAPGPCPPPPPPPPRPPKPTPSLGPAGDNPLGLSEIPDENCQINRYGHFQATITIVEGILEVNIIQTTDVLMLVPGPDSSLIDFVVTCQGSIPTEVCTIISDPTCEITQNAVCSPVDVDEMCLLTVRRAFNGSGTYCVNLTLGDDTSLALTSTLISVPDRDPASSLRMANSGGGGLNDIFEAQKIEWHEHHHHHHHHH
Description: as §1, §2, §3

[6] = target: T4, soluble mouse GPNMB (recombinant extracellular domain) (mouse, UniProt Q99P91 23-502); assay: SPR Biacore, IgG captured
T4 construct: also called moGPNMB; not shown: C-terminal polyhistidine or Avi-His tag
T4 sequence: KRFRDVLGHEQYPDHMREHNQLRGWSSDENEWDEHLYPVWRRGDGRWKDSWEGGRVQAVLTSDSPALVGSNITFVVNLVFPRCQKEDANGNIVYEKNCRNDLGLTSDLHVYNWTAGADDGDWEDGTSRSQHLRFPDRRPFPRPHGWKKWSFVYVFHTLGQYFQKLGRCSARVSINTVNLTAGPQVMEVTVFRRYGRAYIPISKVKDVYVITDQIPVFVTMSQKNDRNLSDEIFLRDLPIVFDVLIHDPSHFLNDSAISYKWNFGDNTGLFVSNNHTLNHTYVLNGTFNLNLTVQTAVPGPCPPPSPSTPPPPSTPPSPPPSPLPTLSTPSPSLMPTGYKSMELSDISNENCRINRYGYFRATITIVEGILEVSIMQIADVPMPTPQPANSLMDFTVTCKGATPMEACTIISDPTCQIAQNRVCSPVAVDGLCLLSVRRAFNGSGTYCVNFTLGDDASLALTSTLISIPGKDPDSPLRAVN
Description: as §1, §2, §3

[7] = target: T4, soluble mouse GPNMB (recombinant …); assay: SPR Biacore T200, IgG captured on Protein A/G; nb = no binding observed
[8] = target: T1, full-length untagged human GPNMB …; assay: FACS titration, FS293-huGPNMB+ cells
Description: Affinity matured anti-GPNMB antibodies of the present disclosure were examined to determine their ability to bind human and mouse GPNMB expressed on FS293-huGPNMB+ or B16F10 cells, respectively. Cell-based affinity measurements were performed to ascertain the apparent affinities of anti-GPNMB antibodies to cell-surface expressed GPNMB. Serial dilutions of anti-GPNMB antibodies of the present disclosure were added to 100,000 FS293-huGPNMB+ or B16F10 cells and allowed to achieve binding equilibrium at 4° C. After addition of fluorescently labeled secondary antibody and brief washing steps, MFI values as a function of titrated antibody concentration were recorded via FACS analysis. Equilibrium binding curves were fit using nonlinear regression analysis with Graphpad Prism 6 software.

B1: anti-GPNMB antibody GPN-82 (antibody, V domains shown)
VH: QVQLQESGPGLVKPSETLSLTCTVSGISITTGNYRWSWIRQPPGKGLEWIGYIYYSGTIIYNPSLKSRVTITRDTSKNQFSLELSSVTAADTAVYYCARDLTHWYFDVWGQGTLVTVSS
VL: DIVMTQSPDSLAVSLGERATINCKSSRSVDYYGIGFLNWYQQKPGQPPKLLIYATSTQGSGVPDRFSGSGSGTDFTLTISSLQAEDVAVYYCQQQKEVPPTFGGGTKVEIK
Inflammasome: Fold Decrease IL-1β (max response at 0.3 µg/ml) [1]: 0.378 fold
EC50 GCase [2]: 0.365 nM
EC50 Lyso Tracker [2]: 0.64 nM
Fold Decrease Lyso Tracker (max response at 1 µg/ml) [2]: 0.569 fold
Fold Increase GCase (max response at 1 µg/ml) [2]: 1.54 fold
EC50 PDL1 [3]: 1.94 nM
Fold Increase CD40 (max response at 1 µg/ml) [3]: 2.29 fold
Fold Increase PDL1 (max response at 1 µg/ml) [3]: 4.6 fold
Kd [4]: 11.9 nM
koff [4]: 0.0024 s⁻¹
kon [4]: 200000 M⁻¹ s⁻¹
Kd [5]: 13.5 nM
koff [5]: 0.0022 s⁻¹
kon [5]: 160000 M⁻¹ s⁻¹
Kd [6]: 2.6 nM
koff [6]: 0.00039 s⁻¹
kon [6]: 150000 M⁻¹ s⁻¹

B2: anti-GPNMB antibody GPN-92 (antibody, V domains shown)
VH: QVQLVQSGAEVKKPGASVKVSCKASGYTFTSYWMHWVRQAPGQGLEWMGEINPSDGRTNYAQKFQGRVTMTVDKSTSTVYMELSSLRSEDTAVYYCARSGGNYAWFAYWGQGTLVTVSS
VL: DIVMTQSPDSLAVSLGERATINCKASQDVSPSLAWYQQKPGQPPKLLIYSASYRYTGVPDRFSGSGSGTDFTLTISSLQAEDVAVYYCQQHYSIPLTFGGGTKVEIK
notes: humanized GPN-08
EC50 GCase [2]: 0.27 nM
Fold Increase GCase (max response at 1 µg/ml) [2]: 1.25 fold
EC50 PDL1 [3]: 1.36 nM
Fold Increase CD40 (max response at 1 µg/ml) [3]: 1.59 fold
Fold Increase PDL1 (max response at 1 µg/ml) [3]: 1.99 fold
Kd [4]: 66.5 nM
koff [4]: 0.005 s⁻¹
kon [4]: 75000 M⁻¹ s⁻¹
Kd [5]: 67.8 nM
koff [5]: 0.0057 s⁻¹
kon [5]: 83000 M⁻¹ s⁻¹
binding result [7]: no binding (tested: 300 nM highest analyte concentration)

B3: anti-GPNMB antibody GPN-93 (antibody, V domains shown)
VH: QVQLVQSGAEVKKPGASVKVSCKASGYTFTSYWMHWVRQAPGQGLEWMGEINPYDQRTNYAQKFQGRVTMTVDKSTSTVYMELSSLRSEDTAVYYCARSTGNYAWFAYWGQGTLVTVSS
VL: DIVMTQSPDSLAVSLGERATINCKTSQDVSPSLAWYQQKPGQPPKLLIYSASKRYTGVPDRFSGSGSGTDFTLTISSLQAEDVAVYYCQQHYSIPLQFGGGTKVEIK
Inflammasome: Fold Decrease IL-1β (max response at 0.3 µg/ml) [1]: 0.594 fold
EC50 GCase [2]: 0.5 nM
Fold Increase GCase (max response at 1 µg/ml) [2]: 1.45 fold
Fold Increase CD40 (max response at 1 µg/ml) [3]: 1.87 fold
Fold Increase PDL1 (max response at 1 µg/ml) [3]: 2.18 fold
Kd [4]: 8.7 nM
koff [4]: 0.00059 s⁻¹
kon [4]: 68000 M⁻¹ s⁻¹
Kd [5]: 10.6 nM
koff [5]: 0.00071 s⁻¹
kon [5]: 67000 M⁻¹ s⁻¹
EC50 [8]: 0.568 nM
binding result [7]: no binding (tested: 300 nM highest analyte concentration)

B4: anti-GPNMB antibody GPN-94 (antibody, V domains shown)
VH: QVQLVQSGAEVKKPGASVKVSCKASGYTFTSYWMHWVRQAPGQGLEWMGEINPYDQRTNYAQKFQGRVTMTVDKSTSTVYMELSSLRSEDTAVYYCARSTGNYAWFAYWGQGTLVTVSS
VL: DIVMTQSPDSLAVSLGERATINCKTSQDVSPSLAWYQQKPGQPPKLLIYSASKRYTGVPDRFSGSGSGTDFTLTISSLQAEDVAVYYCQQHYSIPLTFGGGTKVEIK
Inflammasome: Fold Decrease IL-1β (max response at 0.3 µg/ml) [1]: 0.532 fold
EC50 GCase [2]: 0.54 nM
Fold Increase GCase (max response at 1 µg/ml) [2]: 1.4 fold
EC50 PDL1 [3]: 1.14 nM
Fold Increase CD40 (max response at 1 µg/ml) [3]: 1.72 fold
Fold Increase PDL1 (max response at 1 µg/ml) [3]: 1.88 fold
Kd [4]: 5.4 nM
koff [4]: 0.00042 s⁻¹
kon [4]: 78000 M⁻¹ s⁻¹
Kd [5]: 6.5 nM
koff [5]: 0.00051 s⁻¹
kon [5]: 78000 M⁻¹ s⁻¹
EC50 [8]: 0.186 nM
binding result [7]: no binding (tested: 300 nM highest analyte concentration)

B5: anti-GPNMB antibody GPN-95 (antibody, V domains shown)
VH: QVQLVQSGAEVKKPGASVKVSCKASGYTFTSYWMHWVRQAPGQGLEWMGEINPYDQRTNYAQKFQGRVTMTVDKSTSTVYMELSSLRSEDTAVYYCARSTGNYAWFAYWGQGTLVTVSS
VL: DIVMTQSPDSLAVSLGERATINCKTSQDVSPSLAWYQQKPGQPPKLLIYSARYRYTGVPDRFSGSGSGTDFTLTISSLQAEDVAVYYCQQHYSIPLQFGGGTKVEIK
notes: also called PGN-95
Inflammasome: Fold Decrease IL-1β (max response at 0.3 µg/ml) [1]: 0.45 fold
EC50 GCase [2]: 0.23 nM
Fold Increase GCase (max response at 1 µg/ml) [2]: 1.33 fold
EC50 PDL1 [3]: 0.7 nM
Fold Increase CD40 (max response at 1 µg/ml) [3]: 1.74 fold
Fold Increase PDL1 (max response at 1 µg/ml) [3]: 1.97 fold
Kd [4]: 7.3 nM
koff [4]: 0.00053 s⁻¹
kon [4]: 73000 M⁻¹ s⁻¹
Kd [5]: 8.3 nM
koff [5]: 0.0006 s⁻¹
kon [5]: 71000 M⁻¹ s⁻¹
EC50 [8]: 0.181 nM
binding result [7]: no binding (tested: 300 nM highest analyte concentration)
